In the supplement of paper PMC10567573:

B1: MTMR15 (parent)
chain: YVKAKKSIDKDEEFAGSSPQSSKS

Variants of: B1
Experiment: protein stability index of a GFP-peptide fusion (GPS, HEK-293T) (PSI 1-6); higher = more stable
Conditions: c terminus: a fixed tail appended
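Further: lentivirally expressed fusions sorted by FACS into six bins by GFP to DsRed ratio, PSI derived from sequencing read proportions per bin multiplied by bin number.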

Protein stability index, by site and new letter:
F14: Q 2.89, K 3.29, V 3.61, M 3.12, R 3.25, G 3.35, H 3.47, L 3.27, N 3.49, Y 3.5, S 3.46, P 3.74, D 3.45, A 3.25, T 3.55, I 3.59, W 2.67, C 3.43, E 3.94
K6: S 2.84, N 3.25, V 2.64, T 3.5, M 3.16, L 2.55, I 2.67, A 2.98, Q 3.33, P 3.05, D 3.87, G 3.15, E 3.95, C 2.54, F 3.02, R 3.43, Y 2.78, H 3.26, W 2.7
D9: E 2.9, S 2.69, L 2.76, V 2.77, C 2.98, R 3.05, N 2.61, W 1.61, F 1.92, H 3.27, Q 2.76, G 2.95, P 2.83, Y 2.44, M 3.01, K 2.45, A 2.92, T 2.91, I 2.73
I8: E 3.42, Q 3.3, A 3.18, T 3.22, H 3.28, F 2.81, L 3.07, K 2.98, Y 2.99, N 3.33, W 3.22, P 3.77, G 3.64, D 3.7, S 3.55, R 2.98, C 2.83, M 3.22, V 2.97
Q20: A 2.66, N 2.96, K 3.24, Y 2.62, E 3.29, T 3.4, S 2.9, V 2.84, F 2, G 3.27, W 3.13, C 2.82, H 3.2, M 2.92, R 2.73, P 2.75, D 3.24, I 2.51, L 3
D11: S 3.05, A 2.83, E 2.85, C 2.71, I 2.57, L 2.46, R 2.45, M 2.56, Q 2.94, V 2.72, W 2.31, T 2.5, K 2.64, P 2.56, N 2.87, G 2.88, F 2.48, Y 2.77, H 2.92
A15: V 3.42, K 2.9, L 3.05, E 3.31, G 3.45, Y 2.14, R 2.87, P 3.06, C 2.64, M 2.44, S 2.92, N 2.67, I 3.25, Q 3.16, D 3.63, F 1.91, T 3.08, H 3.38
K10: W 2.96, C 3.27, M 3.36, R 3.25, I 3.21, V 3.24, F 2.26, P 3.55, S 3.25, Q 2.67, N 2.92, E 3.26, H 3.61, Y 2.72, L 3.05, G 3.28, T 3.28, D 3.42, A 3.63
S18: E 3.48, H 2.68, Q 2.93, N 3.9, D 3.18, C 2.75, L 2.85, I 3.66, Y 2.86, M 2.59, F 2.67, P 3.04, A 2.99, T 2.64, W 1.7, R 3.13, G 3.26, V 3.38, K 3.04
E12: H 2.71, N 2.64, Y 1.93, I 2.41, D 2.69, W 2.27, P 2.68, V 2.3, A 2.94, Q 2.98, M 2.93, F 2.37, K 2.7, T 3.21, R 2.6, S 2.92, G 2.8, L 2.78, C 2.59
S21: L 2.86, D 3.31, E 3.3, A 3.23, Y 2.98, M 3.31, N 3.25, K 2.92, Q 3.34, I 2.67, C 3.01, G 2.61, P 2.95, F 3.03, R 2.78, T 3.1, V 1.22, H 3.24, W 2.41
S22: G 2.97, H 2.77, K 1.92, I 3.18, F 2.89, L 2.77, E 3.47, D 3.58, A 3.1, C 3.08
A4: Y 3.55, W 1.8
E13: R 2.77, C 2.05, N 2.43, V 2.31, Q 3.07, H 3.02, A 2.65, F 2.09, S 2.78, P 2.81, L 2.74, W 1.94, D 3.49, T 2.7, G 2.82, K 2.56, I 2.05, M 2.39, Y 2.71
P19: Y 3.02, C 3.23, T 3.5, K 2.63, S 3.42, I 2.92, H 3.25, Q 3.18, A 3.19, E 2.94, M 3.42, F 2.71, L 2.54, W 2.42, V 2.21, D 3.37, R 2.45, G 3.43, N 3.09
S7: A 3.15, T 2.96, H 3.05, M 3.33, R 3.22, G 3.11, K 3.38, Q 2.91, V 3.13, W 2.27, P 3.41, L 2.85, N 2.98, I 3.01, E 3.58, D 2.77, F 3.06, C 3.33, Y 2.08
S17: K 3.21, D 3.03, Q 2.93, G 3.17, P 2.79, C 3.01, E 3.59, M 2.85, R 2.91, V 2.35, Y 1.92, W 4.48, F 1.79, A 2.8, T 3.29, I 2.96, H 3.07, N 2.9, L 2.93
K5: Q 3.83, C 2.74, L 2.15, E 4.21, V 3.47, A 3, F 2.44, G 2.9, I 2.29, H 2.8, D 4.22, S 3.12, W 1.6, M 2.6, P 2.31, N 3.62, R 2.73, Y 2.07, T 3.31
G16: D 3.54, A 3.07, H 2.71, R 3.06, M 3.21, F 2.03, N 2.98, L 2.85, C 3.22, S 3.64, V 2.42, K 3.11, Q 3.21, Y 2.19, E 3.36, W 3.45, I 2.86, P 3.36, T 2.85
